We go through eight molecules from patent US20250270343A1 (Alector, published 2025).

Holding throughout (assay): SPR Biacore, IgG captured
(In general: Surface plasmon resonance follows binding to a sensor surface in real time, without labels.)

The target of assay [1] is T1, soluble human GPNMB (recombinant extracellular domain) (human, UniProt Q14956 23-498).
T1 construct: also called huGPNMB; recombinant human GPNMB extracellular domain; not shown: C-terminal polyhistidine or Avi-His tag
T1 sequence: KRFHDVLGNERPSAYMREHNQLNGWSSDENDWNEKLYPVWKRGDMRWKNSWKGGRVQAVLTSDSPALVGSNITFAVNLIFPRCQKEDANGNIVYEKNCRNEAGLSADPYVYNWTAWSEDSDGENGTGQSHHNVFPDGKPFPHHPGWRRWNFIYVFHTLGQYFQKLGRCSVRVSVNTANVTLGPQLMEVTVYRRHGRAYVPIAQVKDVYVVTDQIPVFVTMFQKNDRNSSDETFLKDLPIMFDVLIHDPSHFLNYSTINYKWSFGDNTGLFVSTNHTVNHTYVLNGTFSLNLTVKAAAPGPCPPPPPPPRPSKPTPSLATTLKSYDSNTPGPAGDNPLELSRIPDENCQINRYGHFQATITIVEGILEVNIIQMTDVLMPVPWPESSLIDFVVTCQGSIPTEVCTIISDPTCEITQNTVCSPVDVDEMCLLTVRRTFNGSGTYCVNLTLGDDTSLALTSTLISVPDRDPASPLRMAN
As for the experimental part: (§1) Binding kinetics of the humanized and affinity matured anti-GPNMB antibodies described above were evaluated using the Biacore T200 (Cytiva). Briefly, IgGs were diluted to 10 μg/mL and captured using a Protein A/G (ThermioFisher, #21186) surface on a CM5 chip that was prepared by amine coupling according to the instrument manufacturer's recommendations. The captured antibodies were tested for their ability to bind human, cynomolgus monkey, and mouse GPNMB recombinant proteins as follows.
(§2) Human, cynomolgus, and mouse GPNMB analytes were diluted in running buffer (HBS-EP+, Teknova, #8022, with 0.5 mg/ml BSA, MP Biomedicals LLC, #820451), to a concentration of 300 nM, then diluted 3-fold serially to 100 nM, 33 nM, and 11 nM. Each sample was injected for 2 minutes to allow association, followed by dissociation in buffer alone for 10 minutes. Each sample injection was followed by the regeneration of the chip with three 30-second injections of 10 mM glycine, pH 1.7. Fresh antibody was captured at the beginning of each cycle.
(§3) Data were analyzed using Biacore evaluation software to generate kinetic constants. The equilibrium dissociation constants (KD) were calculated from the fitted association and dissociation rate constants (k-on and k-off) for each of the anti-GPNMB antibodies.

Assay [2] addresses T2, soluble cynomolgus GPNMB (recombinant extracellular domain) (cynomolgus, UniProt Q14956 23-499 (human entry), limits assumed).
T2 chain: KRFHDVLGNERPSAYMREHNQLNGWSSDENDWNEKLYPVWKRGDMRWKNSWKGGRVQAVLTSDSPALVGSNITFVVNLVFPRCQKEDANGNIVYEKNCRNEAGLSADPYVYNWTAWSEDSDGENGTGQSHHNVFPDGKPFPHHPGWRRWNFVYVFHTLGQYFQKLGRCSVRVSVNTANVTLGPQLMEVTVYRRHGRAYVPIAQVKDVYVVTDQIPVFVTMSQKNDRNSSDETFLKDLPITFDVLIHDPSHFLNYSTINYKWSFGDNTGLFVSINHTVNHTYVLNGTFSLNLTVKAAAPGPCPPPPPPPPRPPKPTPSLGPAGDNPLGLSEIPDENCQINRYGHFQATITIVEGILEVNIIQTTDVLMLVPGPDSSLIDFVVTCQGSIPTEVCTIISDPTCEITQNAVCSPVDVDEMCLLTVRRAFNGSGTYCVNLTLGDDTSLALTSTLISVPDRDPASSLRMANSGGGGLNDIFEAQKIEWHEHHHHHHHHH
The procedure:
as §1, §2, §3

Assay [3] concerns the target T3, soluble mouse GPNMB (recombinant extracellular domain) (mouse, UniProt Q99P91 23-502).
T3 construct: also called moGPNMB; not shown: C-terminal polyhistidine or Avi-His tag
T3 sequence: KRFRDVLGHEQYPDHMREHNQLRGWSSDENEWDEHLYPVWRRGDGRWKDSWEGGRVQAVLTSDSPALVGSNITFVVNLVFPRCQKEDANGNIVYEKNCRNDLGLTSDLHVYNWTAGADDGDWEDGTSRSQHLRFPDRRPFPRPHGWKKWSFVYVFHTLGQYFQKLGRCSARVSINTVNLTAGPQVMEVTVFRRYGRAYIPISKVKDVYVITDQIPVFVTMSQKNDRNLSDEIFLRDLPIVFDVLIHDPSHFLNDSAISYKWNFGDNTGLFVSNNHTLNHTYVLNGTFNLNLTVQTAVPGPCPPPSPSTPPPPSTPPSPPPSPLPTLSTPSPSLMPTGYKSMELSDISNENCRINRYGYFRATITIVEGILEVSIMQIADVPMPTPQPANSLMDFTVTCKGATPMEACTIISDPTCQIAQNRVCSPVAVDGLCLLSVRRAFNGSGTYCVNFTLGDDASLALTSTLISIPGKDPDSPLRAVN
As for the experimental part: as §1, §2, §3

As usually defined, the Kd is a measure of binding affinity in units of concentration. The term koff denotes a measure of how fast the partners let go of each other. What is called kon is a measure of how fast the partners come together.

B1: anti-GPNMB antibody GPN-83 (antibody, V domains shown)
VH: QVQLQESGPGLVKPSETLSLTCTVSGISITTGNYRWSWIRQPPGKGLEWIGYIDYSGTITYNPSLKSRVTITRDTSKNQFSLELSSVTAADTAVYYCARDLTHWYFDVWGQGTLVTVSS
VL: DIVMTQSPDSLAVSLGERATINCKSSRSVDYYGIGFVNWYQQKPGQPPKLLIYATSIQGSGVPDRFSGSGSGTDFTLTISSLQAEDVAVYYCQQQKEVPPTFGGGTKVEIK
As to B1, in assay [1], the Kd was determined as 7.5 nM, the koff was 0.0016 s⁻¹ and the kon came to 210000 M⁻¹ s⁻¹. Besides, in assay [2], the Kd was 8.1 nM, the koff stood at 0.0014 s⁻¹ and the kon was found to be 170000 M⁻¹ s⁻¹. In assay [3], the Kd was 1.5 nM, the koff amounted to 0.00024 s⁻¹ and the on-rate (kon) was determined as 160000 M⁻¹ s⁻¹.

B2: anti-GPNMB antibody GPN-89 (antibody, V domains shown)
VH: QVQLQESGPGLVKPSETLSLTCTVSGISITTGNYRWSWIRQPPGKGLEWIGYIDYSGTITYNPSLKSRVTITRDTSKNQFSLELSSVTAADTAVYYCARDLTHWYYDVWGQGTLVTVSS
VL: DIVMTQSPDSLAVSLGERATINCKSSRSVDYYGIGFLNWYQQKPGQPPKLLIYATSHQGSGVPDRFSGSGSGTDFTLTISSLQAEDVAVYYCQQQKEVPPTFGGGTKVEIK
As for B2, the results for the Kd in assay [1], in assay [2] and in assay [3] were 2.9 nM, 3.3 nM and 0.8 nM, respectively. Moreover, the koff in assay [1] was 0.00057 s⁻¹; in assay [2], 0.00055 s⁻¹; in assay [3], 0.00012 s⁻¹. The kon worked out at 200000 M⁻¹ s⁻¹ in assay [1], 170000 M⁻¹ s⁻¹ in assay [2] and 160000 M⁻¹ s⁻¹ in assay [3].

B3: anti-GPNMB antibody GPN-85 (antibody, V domains shown)
VH: QVQLQESGPGLVKPSETLSLTCTVSGISITTGNYRWSWIRQPPGKGLEWIGYIDYSGTITYNPSLKQRVTITRDTSKNQFSLELSSVTAADTAVYYCARDLTHWYFDVWGQGTLVTVSS
VL: DIVMTQSPDSLAVSLGERATINCKSSRSVDYFGIGFLNWYQQKPGQPPKLLIYATSHQGSGVPDRFSGSGSGTDFTLTISSLQAEDVAVYYCQQQKEVPPTFGGGTKVEIK
Consider B3, for which, in assay [1], the Kd amounted to 1 nM, the koff turned out to be 0.00018 s⁻¹ and the on-rate constant (kon) amounted to 170000 M⁻¹ s⁻¹. Besides, in assay [2], the dissociation constant (Kd) is 1.4 nM, the koff was 0.00021 s⁻¹ and the kon worked out at 150000 M⁻¹ s⁻¹. Besides, in assay [3], the dissociation constant (Kd) turned out to be 0.5 nM, the koff was determined as 7.4e-05 s⁻¹ and the kon came out at 140000 M⁻¹ s⁻¹.

B4: anti-GPNMB antibody GPN-91 (antibody, V domains shown)
VH: QVQLQESGPGLVKPSETLSLTCTVSGISITTGNYRWSWIRQPPGKGLEWIGYIDYSGTITYNPSLKSRVTITRDTSKNQFSLELSSVTAADTAVYYCARDLTHWYFDVWGQGTLVTVSS
VL: DIVMTQSPDSLAVSLGERATINCKSSRSVDYYGIGFLNWYQQKPGQPPKLLIYATSHQGSGVPDRFSGSGSGTDFTLTISSLQAEDVAVYYCQQQKERPPTFGGGTKVEIK
Consider B4, for which, in assay [1], the Kd worked out at 3 nM, the koff stood at 0.00053 s⁻¹ and the association rate constant (kon) came out at 180000 M⁻¹ s⁻¹. Further, in assay [2], the Kd was 3.6 nM, the dissociation rate constant (koff) was 0.00052 s⁻¹ and the on-rate constant (kon) turned out to be 150000 M⁻¹ s⁻¹. In addition, in assay [3], the Kd amounted to 1.1 nM, the off-rate (koff) was 0.00014 s⁻¹ and the on-rate (kon) amounted to 140000 M⁻¹ s⁻¹.

B5: anti-GPNMB antibody GPN-88 (antibody, V domains shown)
VH: QVQLQESGPGLVKPSETLSLTCTVSGISITTGNYRWSWIRQPPGKGLEWIGYIDYSGTITYNPSLKSRVTITRDTSKNQFSLELSSVTAADTAVYYCARDLTHWYFDVWGQGTLVTVSS
VL: DIVMTQSPDSLAVSLGERATINCKSSRSVDYYGIGFLNWYQQKPGQPPKLLIYATSHQGSGVPDRFSGSGSGTDFTLTISSLQAEDVAVYYCQQQKHVPPTFGGGTKVEIK
For the molecule B5, in assay [1], the Kd came to 3.1 nM, the koff came out at 0.00063 s⁻¹ and the kon turned out to be 200000 M⁻¹ s⁻¹. In assay [2], the Kd is 3.7 nM, the off-rate (koff) is 0.00061 s⁻¹ and the kon worked out at 160000 M⁻¹ s⁻¹. In assay [3], the equilibrium dissociation constant (Kd) was determined as 1.1 nM, the koff stood at 0.00017 s⁻¹ and the kon came to 150000 M⁻¹ s⁻¹.

B6: anti-GPNMB antibody GPN-87 (antibody, V domains shown)
VH: QVQLQESGPGLVKPSETLSLTCTVSGISITTGNYRWSWIRQPPGKGLEWIGYIDYSGTITYNPSLKSRVTITRDTSKNQFSLELSSVTAADTAVYYCARDLTHWYYDVWGQGTLVTVSS
VL: DIVMTQSPDSLAVSLGERATINCKSSRSVDYYGIGFLNWYQQKPGQPPKLLIYATSKQGSGVPDRFSGSGSGTDFTLTISSLQAEDVAVYYCQQQKEVPPTFGGGTKVEIK
Consider B6, for which, in assay [1], the Kd is 5.4 nM, the off-rate (koff) came out at 0.0013 s⁻¹ and the on-rate (kon) came out at 250000 M⁻¹ s⁻¹. In assay [2], the Kd was 6.2 nM, the koff was 0.0012 s⁻¹ and the kon worked out at 190000 M⁻¹ s⁻¹. Further, in assay [3], the Kd is 1.5 nM, the koff is 0.00028 s⁻¹ and the association rate constant (kon) was determined as 190000 M⁻¹ s⁻¹.

B7: anti-GPNMB antibody GPN-84 (antibody, V domains shown)
VH: QVQLQESGPGLVKPSETLSLTCTVSGISITTGNYRWSWIRQPPGKGLEWIGYIDYSGTITYNPSLKSRVTITRDTSKNQFSLELSSVTAADTAVYYCARDLTHWYYDVWGQGTLVTVSS
VL: DIVMTQSPDSLAVSLGERATINCKSSRSVDYYGIGFVNWYQQKPGQPPKLLIYATSIQGSGVPDRFSGSGSGTDFTLTISSLQAEDVAVYYCQQQKEVPPTFGGGTKVEIK
On to B7, for which, in assay [1], the equilibrium dissociation constant (Kd) was determined as 9.6 nM, the koff is 0.0021 s⁻¹ and the kon is 220000 M⁻¹ s⁻¹. In addition, in assay [2], the Kd came to 10.3 nM, the off-rate constant (koff) is 0.0019 s⁻¹ and the kon was determined as 180000 M⁻¹ s⁻¹. Moreover, in assay [3], the Kd was found to be 2.1 nM, the koff is 0.00034 s⁻¹ and the on-rate constant (kon) worked out at 160000 M⁻¹ s⁻¹.

B8: anti-GPNMB antibody GPN-90 (antibody, V domains shown)
VH: QVQLQESGPGLVKPSETLSLTCTVSGISITTGNYRWSWIRQPPGKGLEWIGYIDYSGTITYNPSLKQRVTITRDTSKNQFSLELSSVTAADTAVYYCARDLTHWYFDVWGQGTLVTVSS
VL: DIVMTQSPDSLAVSLGERATINCKSSRSVDYYGIGFLNWYQQKPGQPPKLLIYATSHQGSGVPDRFSGSGSGTDFTLTISSLQAEDVAVYYCQQQKEVPPTFGGGTKVEIK
As to B8, in assay [1], the Kd amounted to 2.8 nM, the koff was 0.00053 s⁻¹ and the association rate constant (kon) was found to be 190000 M⁻¹ s⁻¹. Moreover, in assay [2], the Kd stood at 3.2 nM, the koff worked out at 0.00051 s⁻¹ and the kon was determined as 160000 M⁻¹ s⁻¹. Further, in assay [3], the Kd was 0.7 nM, the off-rate constant (koff) was found to be 0.00011 s⁻¹ and the kon was found to be 160000 M⁻¹ s⁻¹.
